According to paper PMC9751095:

Target: Myc-TRAP1 (human) (UniProt Q12931)
Assay: SPR; printed as "Ka 26 µM"
Conditions: enzyme; chains chain; remark: other sources report otherwise

purified recombinant human cyclophilin D, P30405 30-207, sequence (P30405 30-207): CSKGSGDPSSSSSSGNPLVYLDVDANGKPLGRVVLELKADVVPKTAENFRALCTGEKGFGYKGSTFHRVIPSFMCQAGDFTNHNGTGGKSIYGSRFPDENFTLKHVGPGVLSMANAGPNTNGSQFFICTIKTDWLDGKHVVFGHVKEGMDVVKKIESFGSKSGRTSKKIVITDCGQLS
Myc-TRAP1 (human), sequence (Q12931 60-704): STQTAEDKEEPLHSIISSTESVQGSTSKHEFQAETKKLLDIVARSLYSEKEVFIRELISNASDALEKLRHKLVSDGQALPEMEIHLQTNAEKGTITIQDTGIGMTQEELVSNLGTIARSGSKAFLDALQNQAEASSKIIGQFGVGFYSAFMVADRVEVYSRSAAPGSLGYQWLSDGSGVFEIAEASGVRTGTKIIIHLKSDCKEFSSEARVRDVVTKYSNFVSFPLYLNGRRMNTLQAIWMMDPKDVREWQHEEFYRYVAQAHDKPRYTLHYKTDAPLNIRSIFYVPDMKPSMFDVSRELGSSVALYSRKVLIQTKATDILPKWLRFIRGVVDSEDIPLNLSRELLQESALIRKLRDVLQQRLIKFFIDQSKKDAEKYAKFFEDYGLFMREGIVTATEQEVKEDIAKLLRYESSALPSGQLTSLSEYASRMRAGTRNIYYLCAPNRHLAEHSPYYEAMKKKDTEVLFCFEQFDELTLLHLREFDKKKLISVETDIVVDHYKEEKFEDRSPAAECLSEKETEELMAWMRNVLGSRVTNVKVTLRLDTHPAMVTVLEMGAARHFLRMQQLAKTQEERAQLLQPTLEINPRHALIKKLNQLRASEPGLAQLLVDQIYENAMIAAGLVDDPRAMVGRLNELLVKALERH

Kd: 26 µM
Substance: purified recombinant human cyclophilin D, P30405 30-207
